Reference: PMC3084761

Biological target: OS-9 fused to the N-terminus of EYFP (pEYFP-N1-OS-9) (human) (UniProt Q13438)
Experiment: FRET or BRET; live-cell confocal FRET of ECFP (donor) and EYFP (acceptor) fusions in HEK293 cells transfected 48 h; acceptor/donor plasmid ratios 1:1 to 5:1; FRET efficiency against A/D ratio fitted to a 1:1 binding model

Sequence of OS-9 fused to the N-terminus of EYFP (pEYFP-N1-OS-9) (human) (Q13438 26-667): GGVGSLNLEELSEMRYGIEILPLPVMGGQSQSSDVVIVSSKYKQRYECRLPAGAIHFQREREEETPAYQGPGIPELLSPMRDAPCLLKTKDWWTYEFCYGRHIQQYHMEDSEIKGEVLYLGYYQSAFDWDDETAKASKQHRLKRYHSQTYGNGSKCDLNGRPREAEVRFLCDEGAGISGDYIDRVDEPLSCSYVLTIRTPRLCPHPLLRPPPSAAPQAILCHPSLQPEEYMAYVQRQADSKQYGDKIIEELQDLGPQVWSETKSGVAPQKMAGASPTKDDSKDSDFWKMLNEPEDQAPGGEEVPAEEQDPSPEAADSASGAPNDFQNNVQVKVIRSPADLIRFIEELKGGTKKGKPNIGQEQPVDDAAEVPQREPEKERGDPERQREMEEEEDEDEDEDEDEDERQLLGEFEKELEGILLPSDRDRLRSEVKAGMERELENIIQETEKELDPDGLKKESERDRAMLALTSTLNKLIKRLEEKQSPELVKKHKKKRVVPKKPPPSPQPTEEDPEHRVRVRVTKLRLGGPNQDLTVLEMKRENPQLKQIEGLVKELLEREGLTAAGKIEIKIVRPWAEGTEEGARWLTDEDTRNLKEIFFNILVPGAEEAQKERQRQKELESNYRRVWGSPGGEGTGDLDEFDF

maximum FRET efficiency: < 10%
Substance: PHD2-ECFP (PHD2 coding sequence in pECFP-N1) (from UniProt Q9GZT9 1-426) (enzyme)
